Data reported in article PMC8168397.

Experiments:
Assay in all cases: SPR
[1] = target: Syrian hamster FcγRIV, soluble ectodomain (Syrian hamster (Mesocricetus auratus))
[2] = target: Syrian hamster FcγRIIb, soluble ectodomain (Syrian hamster (Mesocricetus auratus))
[3] = target: Syrian hamster FcγRIII, soluble ectodomain (Syrian hamster (Mesocricetus auratus))
[4] = target: Syrian hamster FcγRI, soluble ectodomain (Syrian hamster (Mesocricetus auratus))

Mouse IgG2a
Kd [1]: 0.0147 µM
Kd [2]: 1.14 µM
Kd [3]: 0.572 µM
Kd [4]: 0.338 µM

Mouse IgG1
Kd [1]: > 1 µM
Kd [2]: 0.143 µM
Kd [3]: 0.0781 µM
Kd [4]: > 1 µM

wild-type human IgG1 (from UniProt P01857)
Kd [1]: 0.102 µM
Kd [2]: > 1 µM
Kd [3]: > 1 µM
Kd [4]: 0.737 µM

human IgG1 Fc domain variant V11 (from UniProt P01857)
Kd [1]: > 1 µM
Kd [2]: 0.345 µM
Kd [3]: 0.26 µM
Kd [4]: > 1 µM

Hamster IgG2a
Kd [1]: 0.0171 µM
Kd [2]: 1.03 µM
Kd [3]: 0.702 µM
Kd [4]: 0.496 µM

human IgG1 Fc domain variant GAALIE (from UniProt P01857)
Kd [1]: 0.00952 µM
Kd [2]: 0.328 µM
Kd [3]: 0.233 µM
Kd [4]: > 1 µM

Hamster IgG1
Kd [1]: > 1 µM
Kd [2]: 0.0562 µM
Kd [3]: 0.0355 µM
Kd [4]: > 1 µM
